The text below walks through data of PMC5358782, “Affinity purification of human m-calpain through an intrinsically disordered inhibitor, calpastatin” (PLoS ONE, 2017).

For the experiment, the target named is inactive C105A human m-calpain heterodimer (C105A large subunit with truncated small subunit) (human, UniProt P17655 20-700; P04632 1-268, C105A, Ca2+-bound during hCSD1 binding. C-terminal His tag of the large subunit omitted. The ΔG2 small-subunit limits are not printed (they are in the cited Hata 2012 paper); the 184-residue small subunit of). The experiment in a line: BLI; GST-immobilized hCSD1; purified C105A-calpain from the affinity method in solution. The conditions noted are these: both partners purified.

B1: N-terminal glutathione S-transferase-tagged human calpastatin domain 1 (domain or fragment, UniProt P20810 137-277, looked up)
chain: AVPVESKPDKPSGKSGMDAALDDLIDTLGGPEETEEENTTYTGPEVSDPMSSTYIEELGKREVTIPPKYRELLAKKEGITGPPADSSKPIGPDDAIDALSSDFTCGSPTAAGKKTEKEESTEVLKAQSAGTVRSAAPPQEK
notes: synthetic gene in pGEX-4T-1; GST is fused N-terminally through a linker; the tag can be removed by thrombin; also called GST-hCSD1; GST-tagged hCSD1; source: E. coli BL21(DE3), purified (GSTrap FF); not shown: GST, N-terminal, kept
B1 gave a Kd of 1.7 nM.
